Data taken from patent US20250090676A1 (SUTRO BIOPHARMA, published 2025).

Experiments:
[1] = target: T1, human folate receptor alpha (hFOLR1) (human, UniProt P15328 25-234); experiment: FACS, CHO-hFOLR1 cells;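 further: flow cytometry of serially diluted antibodies binding CHO cells stably expressing the receptor, 60 min on ice, mixed with dye-tagged parental CHO as background control, one-site specific fit with Hill slope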
T1 construct: endogenous on FOLR1-positive KB and Igrov1 cells (cell killing); also called human FolR1; FolRα
T1 sequence (P15328 25-234 limits assumed): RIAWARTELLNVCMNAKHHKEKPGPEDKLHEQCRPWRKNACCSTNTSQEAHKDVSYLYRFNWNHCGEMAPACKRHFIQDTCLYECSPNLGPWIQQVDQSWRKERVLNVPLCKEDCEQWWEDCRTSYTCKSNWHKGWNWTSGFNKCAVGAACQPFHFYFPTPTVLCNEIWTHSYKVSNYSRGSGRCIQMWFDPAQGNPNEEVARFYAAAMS
Experimental: CHO cells were transfected to stably express human (CHO-hFOLR1), cynomolgus (CHO-cFOLR1), or mouse (CHO-mFOLR1) target molecule FOLR1 on the cell surface. Parental CHO cells were used as a negative control to determine background binding levels. Parental CHO and stably transfected CHO-hFOLR1, CHO-cFOLR1, and CHO-mFOLR1 cells were cultured in Ham's F-12: high glucose DMEM (50:50) (Corning, Cellgro-Mediatech) supplemented with 10% heat-inactivated fetal bovine serum (Corning, Cellgro-Mediatech), 1% Penicillin/Streptomycin (Corning, Cellgro-Mediatech) and 2 mmol/L-glutamax (Life Technology).
A mixture of fluoresecent-labeled parental CHO cells and unlabeled CHO-hFOLRlcells were prepared as follows. Parental CHO cells were washed twice in PBS and incubated in PBS containing with 1 nM CellTrace™ Oregon Green488® (Life Technologies) at 37° C. for 30 minutes. Labeled parental CHO cells were then washed 2× with Ham's F-12 media and 2× with FACS buffer (PBS with 1% bovine serum albumin). Unlabeled CHO-hFOLR1 cells were similarly washed and prepared. Labeled parental CHO and unlabeled CHO-hFOLR1 cells were combined at 1:1 ratio and seeded at 50 μL per well (200,000 cells per well) in 96 well polypropylene plates. Cells were mixed with 50 μL of test antibodies (i.e., anti-FOLR1 variants) serially diluted in FACS buffer and incubated on ice for 60 mins. […] Data were analyzed using FlowJo® software (FlowJo, LLC; Ashland, OR) to determine mean fluorescence intensities. Binding constants were calculated using the statistical software, GraphPad Prism (GraphPad Software; La Jolla, CA) using the nonlinear regression equation, one site-specific binding with Hill slope. Secondary antibody alone was used as a control, in addition to measuring non-specific antibody binding to CHO parental cells.

[2] = target: T2, cynomolgus monkey folate receptor alpha (cynomolgus monkey, UniProt P15328 25-234 (human entry)); experiment: FACS, CHO-cFOLR1 cells
T2 construct: Expressed on the surface of stably transfected CHO cells; also called cyno FolR1; CHO-cyno FolR1
T2 sequence (P15328 other isoform, or with tags, fused parts or gaps limits assumed): as the sequence (P15328 25-234 limits assumed) above, with I2T, W4R, R37K, Q117R, A146P, H171Y counted along it

[3] = target: T3, murine folate receptor alpha (mouse, UniProt P35846 25-232); experiment: FACS, CHO-mFOLR1 cells;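 further: flow cytometry binding of serially diluted test antibodies to transfected CHO cells on ice, mean fluorescence intensity, parental CHO cells give background, Kd from one-site specific binding fit with Hill slope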
T3 construct: Expressed on the surface of stably transfected CHO cells; also called mouse FolR1; CHO-mouse FolR1
T3 sequence (P35846 25-232 limits assumed): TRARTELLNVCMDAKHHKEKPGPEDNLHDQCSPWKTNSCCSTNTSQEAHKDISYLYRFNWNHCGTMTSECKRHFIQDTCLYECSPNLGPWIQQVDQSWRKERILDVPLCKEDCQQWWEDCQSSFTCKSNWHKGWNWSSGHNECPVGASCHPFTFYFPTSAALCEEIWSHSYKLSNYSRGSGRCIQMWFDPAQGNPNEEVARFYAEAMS

[4] = target: T1, human folate receptor alpha (hFOLR1); experiment: cell-based or functional assay

Row | Binder | Bmax (MFI) [1] [MFI] | Kd [1] [nM] | Bmax (MFI) [2] [MFI] | Kd [2] [nM] | binding result [3] | Igrov, 2° Antibody Cell Killing, Nb-SC239: EC50 [4] [nM] | Igrov, 2° Antibody Cell Killing, Nb-SC239: Span [4] [%] | KB, 2° Antibody Cell Killing, Nb-239: EC50 [4] [nM] | KB, 2° Antibody Cell Killing, Nb-239: Span [4] [%] | Bmax (MFI) [3] [MFI] | Kd [3] [nM]
1 | SRP1848-F08 (antibody, V domains shown, HC variant paired with trastuzumab LC, cell-free expressed, HIS- and FLAG-tagged; also called Antibody 43) VH: EVQLVESGGGLVQPGGSLRLSCAAGGFNISNHSIHWVRQAPGKGVEWVGEIYPVDGITDYADSVKGRFTISADTSKNTAYLRMNSLRAEDTAVYYCARGSWYWQSGYSYYLDYWGQGTLVTVSS VL: not shown | 26500 | 0.91 | 21000 | 1.07 | no binding | 0.024 | 77 | 0.061 | 94 | – | –
2 | SRP1848-F09 (antibody, V domains shown, HC variant paired with trastuzumab LC, cell-free expressed, HIS- and FLAG-tagged; also called Antibody 44) VH: EVQLVESGGGLVQPGGSLRLSCAASGFNISNHYIHWVRQAPGKGLEWVGGISPLDGYTDYADSVKGRFTISADTSKNTAYLQMNSLRAEDTAVYYCARGAWSWRSGYGYYIDYWGQGTLVTVSS VL: not shown | 23800 | 0.36 | 24200 | 0.75 | – | 0.05 | 79 | 0.056 | 93 | 1670 | 90.7
3 | SRP1848-F10 (antibody, V domains shown, HC variant paired with trastuzumab LC, cell-free expressed, HIS- and FLAG-tagged; also called Antibody 45) VH: EVQLVESGGGLVQPGGSLRLSCAASGFNISNNSIHWVRQAPGKGLEWVGSIFPNDGYTDYADSVKGRFTISADTSKNTAYLQMNSLRAEDTAVYYCARGSWFWRSGYGYYLDYWGQGTLVTVSS VL: not shown | 25600 | 0.36 | 20700 | 0.4 | – | 0.009 | 68 | 0.038 | 94 | 1740 | 6.9
4 | SRP1848-F11 (antibody, V domains shown, HC variant paired with trastuzumab LC, cell-free expressed, HIS- and FLAG-tagged; also called Antibody 46) VH: EVQLVESGGGLVQPGGSLRLSCAASGFNISNNYIHWVRQAPGKGLEWVGGITPIDGNTDYADSVKGRFTISADTSMNTAYLQMNSLRAEDTAVYYCARGSWYWRAGYGYYLDYWGQGALVTVSS VL: not shown | 26800 | 0.75 | 21800 | 0.47 | – | 0.017 | 70 | 0.054 | 91 | 1760 | 4.6
5 | SRP1848-H01 (antibody, V domains shown, HC variant paired with trastuzumab LC, cell-free expressed, HIS- and FLAG-tagged; also called Antibody 55) VH: EVQLVESGGGLVQPGGSLRLSCAASGFNIRTQSIHWVRQAPGKGLEWIGDIFPIDGITDYADSVKGRFTISADTSKNTAYLQMNSLRAEDTAVYYCARGSWSWPSGMDYYLDYWGQGTLVTVSS VL: not shown | 27000 | 0.59 | 17200 | 0.28 | – | 0.016 | 67 | 0.049 | 96 | 3950 | 33.8
6 | SRP1848-G03 (antibody, V domains shown, HC variant paired with trastuzumab LC, cell-free expressed, HIS- and FLAG-tagged; also called Antibody 48) VH: EVQLVESGGGLVQPGGSLRLSCAASGFNISTYYIHWVRQAPGKGLEWVGGITPSDGFTDYADSVKGRSTISADTSKNTAYLQMNSLRAEDTAVYYCARGSWSWPSGHGYFLDYWGQGTLVTVSS VL: not shown | 26400 | 0.82 | 19200 | 0.44 | – | 0.021 | 76 | 0.064 | 91 | 2220 | 2.4
7 | SRP1848-G01 (antibody, V domains shown, HC variant paired with trastuzumab LC, cell-free expressed, HIS- and FLAG-tagged; also called Antibody 47) VH: EVQLVESGGGLVQPGGSLRLSCAASGFNISRHSIHWVRQAPGKGLEWVGWIAPNDGSTDYADSVKGRFTISADTSKNTAYLQMNSLRAEDTAVYYCARGSWAWRSGYSYFLDYWGQGTLVTVSS VL: not shown | 27400 | 0.98 | 20900 | 0.56 | – | 0.022 | 66 | 0.07 | 91 | 1990 | 4.6
8 | SRP1848-E06 (antibody, V domains shown, HC variant paired with trastuzumab LC, cell-free expressed, HIS- and FLAG-tagged; also called Antibody 35) VH: EVQLVESGGGLVQPSGSLRLSCAASGFNINRYYIHWVRQAPGKGLEWVGGITPNDGYTDYADSVEGRFTTSADTSKNTAYLQMNSLRAEDTAVYYCARGTWSWPSGHSYYLDYWGQGTLVTVSS VL: not shown | 25600 | 0.48 | 15800 | 0.26 | – | 0.025 | 74 | – | 93 | 2350 | 1.2
9 | SRP1848-G04 (antibody, V domains shown, HC variant paired with trastuzumab LC, cell-free expressed, HIS- and FLAG-tagged; also called Antibody 49) VH: EVQLVESGGGLVQPGGSLRLSCAASGFNIHSTDIHWVRQAPGKGLEWVAYITPAGGATFYADSVKGRFTISADTSKNTAYLQMNSLRAEDTAVYYCARYPYWFAGYMDYWGQGTLVTVSS VL: not shown | 25200 | 0.76 | 12500 | 0.25 | – | 0.016 | 75 | 0.051 | 92 | 2000 | 2.5
10 | SRP1848-G07 (antibody, V domains shown, HC variant paired with trastuzumab LC, cell-free expressed, HIS- and FLAG-tagged; also called Antibody 51) VH: EVQLVESGGGLVQPGGSLRLSCAASGFNIHSTDIHWVRQAPGKGLEWVAYITPAGGATWYADSVKGRFTISADTSKNTAYLQMNSLRAEDTAVYYCARYPFWFAGYMDYWGQGTLVTVSS VL: not shown | 24900 | 0.78 | 13700 | 0.35 | – | 0.038 | 78 | 0.058 | 94 | 1980 | 2.9
11 | SRP1848-G10 (antibody, V domains shown, HC variant paired with trastuzumab LC, cell-free expressed, HIS- and FLAG-tagged; also called Antibody 53) VH: EVQLVESGGGLVQPGSSLRLSCAASGFNIRSTDIHWVRQAPGKGLEWVAYITPAGGATYYADSVKGRFTISADTSKNTAYLQMNSLRAEDTAVYYCARYPYWFAGYIDYWGQGTLVTVSS VL: not shown | 25300 | 0.49 | 14200 | 0.24 | – | 0.019 | 79 | 0.046 | 97 | 2890 | 4.3
12 | SRP1848-G06 (antibody, V domains shown, HC variant paired with trastuzumab LC, cell-free expressed, HIS- and FLAG-tagged; also called Antibody 50) VH: EVQLVESGGGLVQPGGSLRLSCAASGFNIRSTDIHWVRQAPGKGLEWVAYITPAGGATYYADNVKGRFTISADTSKNTAYLQMNSLRAEDTAVYYCARQPYWFAGYMDYWGQGTLVTVSS VL: not shown | 25800 | 0.63 | 12800 | 0.31 | – | 0.026 | 81 | 0.057 | 96 | 1860 | 11.1
13 | SRP1848-G09 (antibody, V domains shown, HC variant paired with trastuzumab LC, cell-free expressed, HIS- and FLAG-tagged; also called Antibody 52) VH: EVQLVESGGGLVQPGGSLRLSCAASGFNIRGTDIHWVRQAPGKGLEWVAYITPAGGATFYADSVKGRFTISADTSKNTAYLQMNSLRAEDTAVYYCARHEYWFSGYMDYWGQGTLVTVSS VL: not shown | 25100 | 0.59 | 17700 | 0.35 | – | 0.036 | 83 | 0.073 | 97 | 2180 | 6.4
14 | SRP1848-G11 (antibody, V domains shown, HC variant paired with trastuzumab LC, cell-free expressed, HIS- and FLAG-tagged; also called Antibody 54) VH: EVQLVESGGGLVQPGGSLRLSCAASGFNISSTDIHWVRQAPGKGLEWVAYITPAGGATWYADSVKGRFTISADTSKNTAYLQMNSLRAEDTAVYYCARYPYWFSGYMDYWGQGTLVTVSS VL: not shown | 27200 | 0.68 | 11800 | 0.26 | – | 0.023 | 84 | 0.04 | 97 | 2740 | 7.6
15 | SRP1848-A02 (antibody, V domains shown, HC variant paired with trastuzumab LC, cell-free expressed, HIS- and FLAG-tagged; also called Antibody 2) VH: EVQLVESGGGLVQPGGSLRLSCAASGFNISGFRIHWVRQAPGKGLEWVAGIYPESGATYYADSVKGRFTISADTSKNTAYLQMNSLRAEDTAVYYCARHLYVWDWVLDHVLDYWGQGTLVTVSS VL: not shown | 24700 | 0.64 | 18500 | 0.5 | – | 0.039 | 71 | 0.028 | 94 | 18600 | 2.4
16 | SRP1848-D03 (antibody, V domains shown, HC variant paired with trastuzumab LC, cell-free expressed, HIS- and FLAG-tagged; also called Antibody 25) VH: EVQLVESGGGVVQPGGSLRLSCAASGFNIRYFSIHWVRQAPGKGLEWVGDIFPNDGSTDYADSVKGRFTISADTSKNTAYLQMNSLRAEETAVYYCARGHWSWPSGYWYYLDYWGQGTLVTVSS VL: not shown | 26000 | 1.9 | 14100 | 0.58 | – | 0.038 | 76 | – | 98 | 3170 | 9.5
